In paper PMC8096265, “A functional LSD1 coregulator screen reveals a novel transcriptional regulatory cascade connecting R-loop homeostasis with epigenetic regulation” (Nucleic Acids Research, 2021) one finds Kd data, which are given here for one molecule.

Ends that are not written are not given here.

The experiment deals with T1, GST-DDX19A (recombinant full-length DEAD-box helicase 19A) (UniProt Q9NUU7 1-478).
T1 construct: DEAD-box helicase 19A (DDX19A), expressed from pGEX-DDX19A; Printed both as GST-DDX19A and as DDX19A-GST; no cleavage of GST is described, and the array is detected by anti-GST. pGEX vectors usually put GST at the N-terminus (surmise); also called DDX19A-GST; recombinant DDX19A
T1 sequence (looked up): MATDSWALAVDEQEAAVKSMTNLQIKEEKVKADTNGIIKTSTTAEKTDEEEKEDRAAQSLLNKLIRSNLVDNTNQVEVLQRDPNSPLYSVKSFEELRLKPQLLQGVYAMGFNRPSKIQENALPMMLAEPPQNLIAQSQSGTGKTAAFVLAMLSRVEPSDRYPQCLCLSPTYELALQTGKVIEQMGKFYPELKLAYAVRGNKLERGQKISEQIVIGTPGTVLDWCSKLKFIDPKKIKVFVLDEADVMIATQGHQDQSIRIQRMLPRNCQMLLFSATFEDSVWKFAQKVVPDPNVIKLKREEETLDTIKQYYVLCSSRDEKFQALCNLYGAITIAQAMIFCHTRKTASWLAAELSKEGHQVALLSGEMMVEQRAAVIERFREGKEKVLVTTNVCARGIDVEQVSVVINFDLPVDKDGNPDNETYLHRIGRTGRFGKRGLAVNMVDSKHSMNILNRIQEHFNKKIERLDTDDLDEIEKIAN
Nature of the experiment: fluorescence polarisation; fluorescence anisotropy; 50 nM FITC-labelled H3.1 (16-34) peptide in 20 mM HEPES pH 7.5, 100 mM KCl, 0.1 mM DTT, 10% glycerol; DDX19A added stepwise; 23°C; fit to a simple binding equilibrium. Conditions: both partners purified.

A word on the Kd: it is the equilibrium constant for the complex coming apart. With PRKQLATKAARKSAPATGG (also: FITC label, position not given here) [FITC-labelled H3.1 peptide (residues 16-34), unmodified], the Kd was over 1000 nM.
